Reference: patent US12630599B2, “CA2 compositions and methods for tunable regulation” (Obsidian Therapeutics, Inc., priority 2019, dated 2026)

System: Nalm-6 cells
Test: 48 hour cytotoxicity assay, T cells co-cultured with Nalm-6 cells (NucRed), Incucyte (Example 4, Table 14)
Assay type: cell-based
Details: for Average Total Nalm6-NucRed Area after 48 hour at E:T ratio of 3:1: E:T ratio 3:1, 48 hour; for Average Total Nalm6-NucRed Area after 48 hour at E:T ratio of 10:1: E:T ratio 10:1, 48 hour
Description: The following constructs were transduced into T cells: OT-001356 (nucleic acid sequence SEQ ID NO: 6081 encodes two amino acid sequences, first is SEQ ID NO: 6082 (nucleic acid sequence SEQ ID NO: 6083) second is SEQ ID NO: 6084 (nucleic acid sequence SEQ ID NO: 6085)), OT-001356 (amino acid sequence provided as SEQ ID NO: 6092 and nucleic acid is SEQ ID NO: 6093) OT-001407 (amino acid sequence provided as SEQ ID NO: 6086 and nucleic acid is SEQ ID NO: 6087), OT-001895, OT-002011, OT-002111, OT-0020%, OT-02171. The cells were expanded for 10 days and utilized for cytotoxicity assays. Percentage of CAR positive cells obtained with each of the constructs was as follows: OT-001356: 45.3%; OT-001407, OT-001895: 29.4%, OT-002011: 24.3%, OT-002111: 19.6%, OT-0020%: 6.08%, OT-002171: 13.3%. For cytotoxicity assays, T cells were thawed and co-cultured with Nalm-6 cells (stably expressing NucRed) at different T cells to Nalm-6 cell culture ratios. Target cell viability was determined by measuring cellular fluorescence over time using an Incucyte assay and the results are shown in Table 14.

B1: OT-002111: construct transduced into T cells for the study of the effect of mbIL12 on CAR activity (protein)
chain: IWELKKDVYVVELDWYPDAPGEMVVLTCDTPEEDGITWTLDQSSEVLGSGKTLTIQVKEFGDAGQYTCHKGGEVLSHSLLLLHKKEDGIWSTDILKDQKEPKNKTFLRCEAKNYSGRFTCWWLTTISTDLTFSVKSSRGSSDPQGVTCGAATLSAERVRGDNKEYEYSVECQEDSACPAAEESLPIEVMVDAVHKLKYENYTSSFFIRDIIKPDPPKNLQLKPLKNSRQVEVSWEYPDTWSTPHSYFSLTFCVQVQGKSKREKKDRVFTDKTSATVICRKNASISVRAQDRYYSSSWSEWASVPCSGGGGSGGGGSGGGGSRNLPVATPDPGMFPCLHHSQNLLRAVSNMLQKARQTLEFYPCTSEEIDHEDITKDKTSTVEACLPLELTKNESCLNSRETSFITNGSCLASRKTSFMMALCLSSIYEDLKMYQVEFKTMNAKLLMDPKRQIFLDQNMLAVIDELMQALNFNSETVPQKSSLEEPDFYKTKIKLCILLHAFRIRAVTIDRVMSYLNASGSGSGSGSADFPTPSISDFEIPTSNIRRIICSTSGGFPEPHLSWLENGEELNAINTTVSQDPETELYAVSSKLDFNMTTNHSFMCLIKYGHLRVNQTFNWNTTKQEHFPDNGS
  Average Total Nalm6-NucRed Area after 48 hour at E:T ratio of 3:1: 42,520
  Average Total Nalm6-NucRed Area after 48 hour at E:T ratio of 10:1: 42,899

B2: OT-002011: construct transduced into T cells for the study of the effect of mbIL12 on CAR activity (protein)
chain: IWELKKDVYVVELDWYPDAPGEMVVLTCDTPEEDGITWTLDQSSEVLGSGKTLTIQVKEFGDAGQYTCHKGGEVLSHSLLLLHKKEDGIWSTDILKDQKEPKNKTFLRCEAKNYSGRFTCWWLTTISTDLTFSVKSSRGSSDPQGVTCGAATLSAERVRGDNKEYEYSVECQEDSACPAAEESLPIEVMVDAVHKLKYENYTSSFFIRDIIKPDPPKNLQLKPLKNSRQVEVSWEYPDTWSTPHSYFSLTFCVQVQGKSKREKKDRVFTDKTSATVICRKNASISVRAQDRYYSSSWSEWASVPCSGGGGSGGGGSGGGGSRNLPVATPDPGMFPCLHHSQNLLRAVSNMLQKARQTLEFYPCTSEEIDHEDITKDKTSTVEACLPLELTKNESCLNSRETSFITNGSCLASRKTSFMMALCLSSIYEDLKMYQVEFKTMNAKLLMDPKRQIFLDQNMLAVIDELMQALNFNSETVPQKSSLEEPDFYKTKIKLCILLHAFRIRAVTIDRVMSYLNASGSGSGSGSGSGSGSGSGSGSGSGSGSGSGSLDFACDLLPSWAITLISVNGIFVICCLTYCFAPRCRERRGS
  Average Total Nalm6-NucRed Area after 48 hour at E:T ratio of 3:1: 59,465
  Average Total Nalm6-NucRed Area after 48 hour at E:T ratio of 10:1: 44,301
